# Data from paper PMC12439769, “Case of Nisin Oral Ingestion and its LC-MS/MS Detection in Human Urine Over Time: A Case Report” (Archives of clinical and medical case reports, 2025).
# No end group written: not given here.
# Legend:
# [1] = LC-MS/MS (PRM) detection of nisin in human urine after oral ingestion; type: in vivo
# Experimental: (§1) Nisin ZP (Handary S.A; Brussels, Belgium) was ingested by a healthy volunteer. […] Sterile urine was then collected at 4 pm (Sample 1) and 8 pm (Sample 2) on the first day of ingestion, and at 6 am (Sample 3), 8 am (Sample 4), 3:30 pm (Sample 5), and 9 pm (Sample 6) the next day. Urine samples were frozen at −80°C immediately upon collection (Table 1).
# Six urine samples, including both standard and nisin-spiked samples, were thawed/prepared then centrifuged at 4000×g to pellet large solute materials/proteins. The supernatant from each sample was then filtered using a 10 kDa MWCO Amicon® Ultra Centrifugal Filter to further remove larger protein molecules. The filtered urine was lyophilized under stringent conditions (−50 °C and 0.1 Torr) for 48 hours to ensure complete dryness. The lyophilized cake was resuspended in 0.1% Trifluoroacetic Acid (TFA) for sample homogenization. A subsequent centrifugation step at 12000×g for 5 minutes allowed for the separation of any remaining particulate matter, with the supernatant being carefully transferred into a clean tube. The supernatant underwent desalting using C18 Stage Tips, which were prepared by equilibration in 1% TFA and 50% Acetonitrile (ACN), followed by a washing solution of 5% ACN and 0.1% TFA, and an elution in 40% ACN with 0.1% TFA. The peptides eluted were vacuum dried and then resuspended in 5% Formic Acid (FA).
# Nisin peptide abundance was measured using liquid chromatography coupled to mass spectrometry (LC-MS/MS). After reconstitution in formic acid, the samples were fractionated online by C18 reversed phase chromatography using a Dionex U3000 HPLC to deliver an increasing gradient of acetonitrile. Peptides were eluted and electrosprayed directly in a Thermofisher Fusion Lumos mass spectrometer. Data were acquired using a parallel reaction monitoring strategy in which the +5 precursor ion of full-length nisin was analyzed by MS/MS [51]. The precursor and fragment ion masses for +5 charge state of nisin utilized for Parallel Reaction Monitoring are shown in Table 2. Extracted ion chromatograms were generated for each fragment ion using the Skyline software package. The area under the curve for each fragment ion was summed to calculate an estimate of nisin abundance.
# [2] = Western blotting of nisin in urine samples after oral ingestion; type: in vivo, human
# Experimental: as §1
# The urine samples were filtered using a 10 kDa MWCO Amicon® ultra centrifugal filter (Cat No: UFC201024, Millipore). The filtrate was used to analyze nisin, while the top retained fraction was used to check for potential nisin-binding proteins that might bind to and shift nisin to a higher molecular weight.
# Western blot analyses were performed on the filtrate and top fractions from the urine samples to detect nisin and nisin binding proteins, respectively. Samples were normalized by equal protein concentration (125 μg) and then mixed with 4X Laemmli sample buffer (Cat. No. 1610747, Bio-Rad) containing β-ME (3:1). The proteins were resolved by 16% Tricine SDS-PAGE (Invitrogen, Cat No. EC6695) then transferred to Immobilon-P membranes. The blots were probed with a custom polyclonal affinity-purified rabbit nisin antibody (proprietary to Kapila lab). The antibody against nisin was produced by co-immunizing rabbits with four short nisin peptide sequences (Pacific Immunology, Ramona, CA). Blots were incubated with horseradish peroxidase-conjugated anti-rabbit antibody (SC-2004, Santa Cruz Biotechnology) and then developed with the ECL-plus detection system (Thermo Fisher Scientific).
# [3] = Tolerability of oral ingestion of nisin; type: in vivo, human; conditions: 20 grams in total, two doses of 10 grams/150 ml of water at noon and 6 pm; one healthy person
# Experimental: as §1
# [4] = cited from earlier work
# Experimental: (§2) Nisin mediates its action in part by interactions with phospholipid bilayers on cellular membranes. Prior pharmacokinetic and pharmacodynamic information indicate that nisin can be absorbed via epithelial tissues. Nisin can be absorbed through the vaginal epithelium into the circulation following intravaginal administration in rabbits. Maximum levels of nisin were detected in blood samples after 1 h of treatment. […] Further, Dreyer et al. reported the migration of nisin a ...
# [5] = tested on: gastrointestinal epithelial and vascular endothelial cells; conditions: in vitro; ref 35 (Dreyer et al.); cited from earlier work
# Experimental: as §2
# [6] = oral ingestion, encapsulated nisin and nisin powder groups, at 24, 48 and 72 hours; mass spectrometry; cited from earlier work
# Source text: Like other reports of nisin detection with LC-MS/MS, this project employed similar methods to successfully detect nisin and its fragments in urine samples [44–49]. The ongoing clinical trial (ClinicalTrials.gov; NCT06097468) of nisin in oral cancer patients and studies with larger sample sizes will be helpful to furthe ...
# [7] = rabbits, intravaginal administration
substance,measurement,setting,value
"Nisin ZP: Natural bacteriocin made by Lactococcus lactis, food preservative; Nisin ZP from Handary S.A, Brussels, Belgium (ITSISLCTPGCKTGALMGCNMKTATCNCSIHVSK; also: lantibiotic nisin-Z: thioether rings and dehydro residues not placed; UniProt P29559 24-57, looked up)",Time of maximal nisin levels detected in urine,"[1]; after first oral 10 g dose, LC-MS/MS, earliest sample collected at 4 h, n = 1 subject",4 h
same,Nisin detection in urine samples 1–4 by LC-MS/MS,"[1]; one healthy person, oral 2 x 10 g/150 ml water at noon and 6 pm, urine 4, 8, 18, 20 h after first ingestion, 10 kDa MWCO filtrate, lyophilized, C18 desalted, PRM of +5 precursor, summed fragment AUC",detected
same,Time window of nisin detection in urine after the first ingestion,"[1]; oral 10 g/150 ml at noon, second 10 g at 6 pm, LC-MS/MS, n = 1 subject, no urine collected before 4 h",4 to 20 h
same,Nisin detection in urine samples 5–6 by LC-MS/MS,"[1]; same subject and regimen, urine 27.5 and 33 h after first ingestion (21.5 and 27 h after second), PRM of +5 precursor",not
same,Time of nisin detection in urine after the second ingestion,"[1]; second oral 10 g/150 ml dose at 6 pm, LC-MS/MS, n = 1 subject",up to 14 hours
same,Nisin detection in urine samples 2 through 6 by immunoblotting,"[2]; <10 kDa filtrate, urine 8–33 h after first ingestion, anti-nisin rabbit polyclonal antibody",did not detect
same,Nisin detection at approximately 3.3 kDa in urine sample 1 by immunoblotting,"[2]; <10 kDa filtrate, urine 4 h after first ingestion, anti-nisin rabbit polyclonal antibody, 16% Tricine SDS-PAGE",detected
same,High molecular weight nisin-positive band at approximately 40 kDa in urine sample 1,"[2]; >10 kDa retained fraction, urine 4 h after first ingestion, suggests a potential nisin-binding protein",nisin-positive band
same,Tolerability of oral ingestion,[3],well tolerated without any adverse events
same,Stability in the harsh conditions of the gastric environment,[4],partially stable
same,Time at which blood levels declined to baseline,[4]; [7],12 h
same,Time of maximum levels of nisin in blood samples,[4]; [7],1 h
same,Migration across gastrointestinal epithelial and vascular endothelial cells,[5],migration of nisin across gastrointestinal epithelial and vascular endothelial cells
same,Integrity of nisin passing through the porcine gastrointestinal tract,[6],remains intact
